Experimental data reported in article PMC5383399, “Kinesin-4 KIF21B is a potent microtubule pausing factor” (eLife, 2017).

Experiments:
[1] = target: KIF21B-FL-GFP (full-length KIF21B-GFP) (human); assay: single-molecule fluorescence intensity analysis (TIRF); GFP-tagged motors moving on MTs, compared with single GFP immobilized, or KIF5B-560-GFP moving, in a separate chamber on the same coverslip; 15 µM tubulin, 20 nM mCherry-EB3, MRB80 with 50 mM KCl, 30°C
[2] = target: KIF21B-FL-GFP (full-length KIF21B-GFP) (human); assay: single-molecule fluorescence intensity and photobleaching-step analysis (TIRF); purified GFP fusions diluted in PBS and immobilized on plasma-cleaned coverslips, room temperature; compared with monomeric GFP and dimeric GFP-EB3
[3] = target: KIF21B-FL-ΔrCC-GFP (human); assay: as above
[4] = target: KIF21B-MD-CC1-GFP (purified) (human); assay: single-molecule fluorescence intensity analysis (TIRF); GFP-tagged motors moving on MTs, compared with single GFP immobilized, or KIF5B-560-GFP moving, in a separate chamber on the same coverslip; 15 µM tubulin, 20 nM mCherry-EB3, MRB80 with 50 mM KCl, 30°C
[5] = target: KIF21B-MD-CC1-GFP (purified) (human); assay: single-molecule fluorescence intensity and photobleaching-step analysis (TIRF); purified GFP fusions diluted in PBS and immobilized on plasma-cleaned coverslips, room temperature; compared with monomeric GFP and dimeric GFP-EB3
[6] = target: KIF21B-MD-CCΔrCC-GFP (human); assay: as above
[7] = target: the molecule itself; assay: single-molecule fluorescence intensity analysis (TIRF); GFP-tagged motors moving on MTs, compared with single GFP immobilized, or KIF5B-560-GFP moving, in a separate chamber on the same coverslip; 15 µM tubulin, 20 nM mCherry-EB3, MRB80 with 50 mM KCl, 30°C

KIF21B-FL-GFP (full-length KIF21B-GFP) (natural protein)
stoichiometry N [1]: 2 | stoichiometry N [2]: 2

KIF21B-FL-ΔrCC-GFP (natural protein)
stoichiometry N [3]: 2

KIF21B-MD-CC1-GFP (purified) (domain or fragment)
fluorescence intensity relative to single monomeric GFP [4]: 1.8 fold | stoichiometry N [5]: 2

KIF21B-MD-CCΔrCC-GFP (domain or fragment)
stoichiometry N [6]: 2

B1: KIF5B-560-GFP (domain or fragment, UniProt P33176 1-560, looked up)
chain: MADLAECNIKVMCRFRPLNESEVNRGDKYIAKFQGEDTVVIASKPYAFDRVFQSSTSQEQVYNDCAKKIVKDVLEGYNGTIFAYGQTSSGKTHTMEGKLHDPEGMGIIPRIVQDIFNYIYSMDENLEFHIKVSYFEIYLDKIRDLLDVSKTNLSVHEDKNRVPYVKGCTERFVCSPDEVMDTIDEGKSNRHVAVTNMNEHSSRSHSIFLINVKQENTQTEQKLSGKLYLVDLAGSEKVSKTGAEGAVLDEAKNINKSLSALGNVISALAEGSTYVPYRDSKMTRILQDSLGGNCRTTIVICCSPSSYNESETKSTLLFGQRAKTIKNTVCVNVELTAEQWKKKYEKEKEKNKILRNTIQWLENELNRWRNGETVPIDEQFDKEKANLEAFTVDKDITLTNDKPATAIGVIGNFTDAERRKCEEEIAKLYKQLDDKDEEINQQSQLVEKLKTQMLDQEELLASTRRDQDNMQAELNRLQAENDASKEEVKEVLQALEELAVNYDQKSQEVEDKTKEYELLSDELNQKSATLASIDAELQKLKEMTNHQKKRAAEMMASLLK
notes: KIF5B (kinesin-1), residues 1–560; also called N-terminal fragment of kinesin-1, KIF5B residues 1–560; not shown: GFP, C-terminal, kept
fluorescence intensity relative to single monomeric GFP [7]: ~1.8 fold | stoichiometry N [7]: 2
